# Source: publication PMC11018632, “The CB1 receptor interacts with cereblon and drives cereblon deficiency-associated memory shortfalls” (EMBO Molecular Medicine, 2024)
# Experiments:
# [1] = target: T1, 5-IAF-labelled 6xHis-tagged human CB1R carboxy-terminal domain (hCB1R-CTD, amino acids 400-472) (human, UniProt P21554 400-472, labelled with 5-(iodoacetamido)fluorescein (5-IAF)); test: FP
# T1 chain: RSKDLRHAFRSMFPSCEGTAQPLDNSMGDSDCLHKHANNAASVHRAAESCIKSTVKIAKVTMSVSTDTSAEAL
# [2] = target: T2, 6xHis-tagged human cereblon (hCRBN), recombinant (human, UniProt Q96SW2 1-442); test: fluorescence polarisation; saturation binding; constant 100 nM 5-IAF-hCB1R-CTD and increasing amounts of hCRBN (~0-100 µM); fitted to a one-site equation for Kd; conditions: both partners purified
# T2 construct: cereblon/CRBN, human; human CRBN cDNA inserted in the pBH4 vector; the introduction speaks of the 442 amino-acid protein; No tag cleavage is described; also called His6-tagged CRBN; unlabelled human CRBN
Binder,Kd [1],binding result [2]
"6xHis-tagged human cereblon (hCRBN), recombinant (natural protein) MAGEGDQQDAAHNMGNHLPLLPAESEEEDEMEVEDQDSKEAKKPNIINFDTSLPTSHTYLGADMEEFHGRTLHDDDSCQVIPVLPQVMMILIPGQTLPLQLFHPQEVSMVRNLIQKDRTFAVLAYSNVQEREAQFGTTAEIYAYREEQDFGIEIVKVKAIGRQRFKVLELRTQSDGIQQAKVQILPECVLPSTMSAVQLESLNKCQIFPSKPVSREDQCSYKWWQKYQKRKFHCANLTSWPRWLYSLYDAETLMDRIKKQLREWDENLKDDSLPSNPIDFSYRVAACLPIDDVLRIQLLKIGSAIQRLRCELDIMNKCTSLCCKQCQETEITTKNEIFSLSLCGPMAAYVNPHGYVHETLTVYKACNLNLIGRPSTEHSWFPGYAWTVAQCKICASHIGWKFTATKKDMSPQKFWGLTRSALLPTIPDTEDEISPDKVILCL",2810 nM,–
"5-IAF-labelled 6xHis-tagged human CB1R carboxy-terminal domain (hCB1R-CTD, amino acids 400-472) (domain or fragment, UniProt P21554 400-472, looked up, labelled with 5-(iodoacetamido)fluorescein (5-IAF), type-1 cannabinoid receptor (CB1R), human, carboxy-terminal domain, amino acids 400-472; The construct was made in earlier work (Costas-Insua et al, 2021); The results section gives aa 408-472 for the CTD of the earlier proteomic screen; also called 5-IAF-hCB1R-CTD; His6-tagged CB1R-CTD) RSKDLRHAFRSMFPSCEGTAQPLDNSMGDSDCLHKHANNAASVHRAAESCIKSTVKIAKVTMSVSTDTSAEAL",–,binds
